Results reported in patent US20210284734A1 (SYMPHOGEN A S, published 2021).

B1: 12819.13367 (antibody, human IgG1, lambda, L234A L235A)
heavy: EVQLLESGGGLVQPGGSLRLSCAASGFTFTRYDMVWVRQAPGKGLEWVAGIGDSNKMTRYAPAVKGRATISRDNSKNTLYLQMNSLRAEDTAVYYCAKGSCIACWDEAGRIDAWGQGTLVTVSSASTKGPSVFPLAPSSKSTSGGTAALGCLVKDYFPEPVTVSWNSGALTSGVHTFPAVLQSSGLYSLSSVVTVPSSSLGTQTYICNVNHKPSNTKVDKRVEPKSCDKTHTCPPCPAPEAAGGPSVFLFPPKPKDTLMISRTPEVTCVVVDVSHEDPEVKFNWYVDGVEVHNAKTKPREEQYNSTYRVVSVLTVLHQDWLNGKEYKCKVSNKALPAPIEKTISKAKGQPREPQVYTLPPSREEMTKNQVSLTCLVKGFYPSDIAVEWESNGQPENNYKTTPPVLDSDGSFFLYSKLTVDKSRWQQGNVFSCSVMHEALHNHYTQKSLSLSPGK
light: ELTQDPAVSVALGQTVRITCSGGGSYDGSSYYGWYQQKPGQAPVTVIYNNNNRPSDIPDRFSGSSSGNTASLTITGAQAEDEADYYCGSYDRPETNSDYVGMFGSGTKVTVLGQPKANPTVTLFPPSSEELQANKATLVCLISDFYPGAVTVAWKADGSPVKAGVETTKPSKQSNNKYAASSYLSLTPEQWKSHRSYSCQVTHEGSTVEKTVAPTECS
B2: 12892.13195 (antibody, human IgG1, lambda, L234A L235A)
heavy: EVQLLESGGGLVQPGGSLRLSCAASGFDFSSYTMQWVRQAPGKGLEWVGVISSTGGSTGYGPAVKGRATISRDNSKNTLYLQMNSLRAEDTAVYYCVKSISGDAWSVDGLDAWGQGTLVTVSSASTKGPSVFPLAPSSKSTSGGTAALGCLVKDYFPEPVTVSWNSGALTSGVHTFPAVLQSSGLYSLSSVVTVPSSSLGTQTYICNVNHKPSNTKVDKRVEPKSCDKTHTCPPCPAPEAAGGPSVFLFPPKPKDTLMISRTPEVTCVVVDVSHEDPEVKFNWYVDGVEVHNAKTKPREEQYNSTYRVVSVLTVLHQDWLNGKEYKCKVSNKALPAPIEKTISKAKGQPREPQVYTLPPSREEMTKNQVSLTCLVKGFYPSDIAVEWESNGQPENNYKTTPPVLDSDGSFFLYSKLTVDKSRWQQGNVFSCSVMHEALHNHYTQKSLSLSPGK
light: ELTQDPAVSVALGQTVRITCSGGGSAYGWYQQKPGQAPVTVIYYNNQRPSGIPDRFSGSSSGNTASLTITGAQAEDEADYYCGSYDSSAVGIFGSGTKVTVLGQPKANPTVTLFPPSSEELQANKATLVCLISDFYPGAVTVAWKADGSPVKAGVETTKPSKQSNNKYAASSYLSLTPEQWKSHRSYSCQVTHEGSTVEKTVAPTECS
notes: same as 12892.15378 but without the N-terminal SY of the light chain
B3: 12777.13362 (antibody, human IgG1, lambda, L234A L235A)
heavy: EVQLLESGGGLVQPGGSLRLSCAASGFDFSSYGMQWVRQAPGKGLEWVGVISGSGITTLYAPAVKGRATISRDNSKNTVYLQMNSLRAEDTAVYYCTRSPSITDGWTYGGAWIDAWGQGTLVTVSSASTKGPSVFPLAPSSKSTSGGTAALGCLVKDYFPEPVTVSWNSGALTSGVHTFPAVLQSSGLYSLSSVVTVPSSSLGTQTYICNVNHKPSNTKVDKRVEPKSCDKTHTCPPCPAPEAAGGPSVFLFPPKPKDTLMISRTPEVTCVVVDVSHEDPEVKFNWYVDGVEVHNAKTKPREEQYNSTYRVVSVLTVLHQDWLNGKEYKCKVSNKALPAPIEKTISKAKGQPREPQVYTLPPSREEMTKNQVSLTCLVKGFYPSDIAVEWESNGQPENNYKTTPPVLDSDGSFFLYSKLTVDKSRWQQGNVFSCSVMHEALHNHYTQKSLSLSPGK
light: ELTQDPAVSVALGQTVRITCSGGDGSYGWFQQKPGQAPVTVIYDNDNRPSDIPDRFSGSSSGNTASLTITGAQAEDEADYYCGNADLSGGIFGSGTKVTVLGQPKANPTVTLFPPSSEELQANKATLVCLISDFYPGAVTVAWKADGSPVKAGVETTKPSKQSNNKYAASSYLSLTPEQWKSHRSYSCQVTHEGSTVEKTVAPTECS
notes: same as 12777.15382 but without the N-terminal SY of the light chain
B4: 13112.13208 (antibody, human IgG1, lambda, L234A L235A)
heavy: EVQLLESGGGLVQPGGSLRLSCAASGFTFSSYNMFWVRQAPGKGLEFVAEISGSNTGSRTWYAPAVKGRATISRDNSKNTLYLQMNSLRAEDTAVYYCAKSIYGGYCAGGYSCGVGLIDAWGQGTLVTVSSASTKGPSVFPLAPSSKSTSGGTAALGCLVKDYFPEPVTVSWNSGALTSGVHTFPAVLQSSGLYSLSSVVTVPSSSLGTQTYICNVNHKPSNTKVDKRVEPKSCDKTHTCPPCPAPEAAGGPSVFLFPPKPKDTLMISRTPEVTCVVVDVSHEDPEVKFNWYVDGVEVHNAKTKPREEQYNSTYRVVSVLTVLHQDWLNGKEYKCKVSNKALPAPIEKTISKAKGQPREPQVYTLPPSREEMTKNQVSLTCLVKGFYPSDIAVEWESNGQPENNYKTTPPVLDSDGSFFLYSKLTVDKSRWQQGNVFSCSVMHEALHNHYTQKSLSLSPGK
light: ELTQDPAVSVALGQTVRITCSGGSSDYYGWFQQKPGQAPVTVIYYNNKRPSDIPDRFSGSSSGNTASLTITGAQAEDEADYYCGNADSSVGVFGSGTKVTVLGQPKANPTVTLFPPSSEELQANKATLVCLISDFYPGAVTVAWKADGSPVKAGVETTKPSKQSNNKYAASSYLSLTPEQWKSHRSYSCQVTHEGSTVEKTVAPTECS
notes: same as 13112.15380 but without the N-terminal SY of the light chain
B5: 12748.15381 (antibody, human IgG1, lambda, L234A L235A, V domains shown)
VH: EVQLLESGGGLVQPGGSLRLSCAASGFTFSDYAMNWVRQAPGKGLEWVAGIGNDGSYTNYGAAVKGRATISRDNSKNTLYLQMNSLRAEDTAVYYCASDIRSRNDCSYFLGGCSSGFIDVWGQGTLVTVSS
VL: SYELTQDPAVSVALGQTVRITCSGGSSYSYGWFQQKPGQAPVTVIYESNNRPSDIPDRFSGSSSGNTASLTITGAQAEDEADYYCGNADSSSGIFGSGTKVTVLG
notes: humanized, IgG1 LALA, lambda
B6: 12748.16124 (antibody, human IgG1, lambda, L234A L235A, V domains shown)
VH: B5 VH
VL: SYELTQPPSVSVSPGQTARITCSGGSSYSYGWFQQKPGQAPVTVIYESNNRPSDIPERFSGSSSGTTVTLTISGVQAEDEADYYCGNADSSSGIFGSGTKVTVLG
notes: alternative germline VL variant of 12748.15381; IgG1 LALA, lambda
B7: 12865.15377 (antibody, human IgG1, lambda, L234A L235A, V domains shown)
VH: EVQLLESGGGLVQPGGSLRLSCAASGFDFSDHGMQWVRQAPGKGLEYVGVIDTTGRYTYYAPAVKGRATISRDNSKNTLYLQMNSLRAEDTAVYYCAKTTCVGGYLCNTVGSIDAWGQGTLVTVSS
VL: SYELTQDPAVSVALGQTVRITCSGGGSSSYYGWYQQKPGQAPVTVIYDDTNRPSGIPDRFSGSSSGNTASLTITGAQAEDEADYYCGGYEGSSHAGIFGSGTKVTVLG
notes: humanized, IgG1 LALA, lambda
B8: 12892.15378 (antibody, human IgG1, lambda, L234A L235A)
heavy: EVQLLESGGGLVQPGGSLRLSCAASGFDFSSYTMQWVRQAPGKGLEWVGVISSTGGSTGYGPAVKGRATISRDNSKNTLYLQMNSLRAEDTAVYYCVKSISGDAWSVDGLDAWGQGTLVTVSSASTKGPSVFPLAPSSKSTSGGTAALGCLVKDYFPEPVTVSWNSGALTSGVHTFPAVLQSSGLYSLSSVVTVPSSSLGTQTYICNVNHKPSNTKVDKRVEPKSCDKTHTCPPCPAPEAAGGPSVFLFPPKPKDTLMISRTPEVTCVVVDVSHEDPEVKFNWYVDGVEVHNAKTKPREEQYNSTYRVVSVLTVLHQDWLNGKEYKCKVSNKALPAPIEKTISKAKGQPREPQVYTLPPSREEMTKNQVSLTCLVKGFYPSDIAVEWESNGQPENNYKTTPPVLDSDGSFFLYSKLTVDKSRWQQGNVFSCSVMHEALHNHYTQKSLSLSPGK
light: SYELTQDPAVSVALGQTVRITCSGGGSAYGWYQQKPGQAPVTVIYYNNQRPSGIPDRFSGSSSGNTASLTITGAQAEDEADYYCGSYDSSAVGIFGSGTKVTVLGQPKANPTVTLFPPSSEELQANKATLVCLISDFYPGAVTVAWKADGSPVKAGVETTKPSKQSNNKYAASSYLSLTPEQWKSHRSYSCQVTHEGSTVEKTVAPTECS
notes: humanized, IgG1 LALA, lambda
B9: 12796.15376 (antibody, human IgG1, lambda, L234A L235A, V domains shown)
VH: EVQLLESGGGLVQPGGSLRLSCAASGFDFSSYTMQWVRQAPGKGLEWVGVISSTGGSTGYGPAVKGRATISRDNSKNTLYLQMNSLRAEDTAVYYCVKSVSGDAWSVDGLDAWGQGTLVTVSS
VL: SYELTQDPAVSVALGQTVRITCSGGGSAYGWYQQKPGQAPVTVIYYNNQRPSDIPDRFSGSSSGNTASLTITGAQAEDEADYYCGSYDSSAVGIFGSGTKVTVLG
notes: humanized, IgG1 LALA, lambda
B10: 12777.15382 (antibody, human IgG1, lambda, L234A L235A)
heavy: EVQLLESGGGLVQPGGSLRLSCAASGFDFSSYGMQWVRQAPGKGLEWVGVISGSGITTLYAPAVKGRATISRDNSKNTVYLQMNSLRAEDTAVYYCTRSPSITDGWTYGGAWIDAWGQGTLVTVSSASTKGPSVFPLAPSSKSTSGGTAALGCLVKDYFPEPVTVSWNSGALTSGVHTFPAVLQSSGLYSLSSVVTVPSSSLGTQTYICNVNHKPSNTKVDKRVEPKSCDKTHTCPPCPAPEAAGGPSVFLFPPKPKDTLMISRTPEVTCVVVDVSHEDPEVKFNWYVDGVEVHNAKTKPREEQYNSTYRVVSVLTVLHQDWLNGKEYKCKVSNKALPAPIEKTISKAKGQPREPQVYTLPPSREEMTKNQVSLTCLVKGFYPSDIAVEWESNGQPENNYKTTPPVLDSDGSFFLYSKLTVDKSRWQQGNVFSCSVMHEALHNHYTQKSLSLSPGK
light: SYELTQDPAVSVALGQTVRITCSGGDGSYGWFQQKPGQAPVTVIYDNDNRPSDIPDRFSGSSSGNTASLTITGAQAEDEADYYCGNADLSGGIFGSGTKVTVLGQPKANPTVTLFPPSSEELQANKATLVCLISDFYPGAVTVAWKADGSPVKAGVETTKPSKQSNNKYAASSYLSLTPEQWKSHRSYSCQVTHEGSTVEKTVAPTECS
notes: humanized, IgG1 LALA, lambda
B11: 12760.15375 (antibody, human IgG1, lambda, L234A L235A, V domains shown)
VH: EVQLLESGGGLVQPGGSLRLSCAASGFTFSTFNMVWVRQAPGKGLEYVAEISSDGSFTWYATAVKGRATISRDNSKNTVYLQMNSLRAEDTAVYYCAKSDCSSSYYGYSCIGIIDAWGQGTLVTVSS
VL: SYELTQDPAVSVALGQTVRITCSGGISDDGSYYYGWFQQKPGQAPVTVIYINDRRPSNIPDRFSGSSSGNTASLTITGAQAEDEADYYCGSYDSSAGVGIFGSGTKVTVLG
notes: humanized, IgG1 LALA, lambda
B12: 13112.15380 (antibody, human IgG1, lambda, L234A L235A)
heavy: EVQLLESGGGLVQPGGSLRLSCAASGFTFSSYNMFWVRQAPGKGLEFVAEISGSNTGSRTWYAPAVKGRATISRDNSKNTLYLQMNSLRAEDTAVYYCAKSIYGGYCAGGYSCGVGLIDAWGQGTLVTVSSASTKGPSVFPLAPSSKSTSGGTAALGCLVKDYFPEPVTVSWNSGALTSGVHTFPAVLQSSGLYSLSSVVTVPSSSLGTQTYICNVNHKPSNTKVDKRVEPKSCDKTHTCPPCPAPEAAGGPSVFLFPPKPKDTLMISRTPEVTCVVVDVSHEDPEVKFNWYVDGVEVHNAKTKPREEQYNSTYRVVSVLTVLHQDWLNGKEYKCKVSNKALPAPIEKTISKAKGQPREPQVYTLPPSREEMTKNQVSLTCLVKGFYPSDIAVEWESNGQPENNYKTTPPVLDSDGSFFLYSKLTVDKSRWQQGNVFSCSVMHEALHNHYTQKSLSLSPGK
light: SYELTQDPAVSVALGQTVRITCSGGSSDYYGWFQQKPGQAPVTVIYYNNKRPSDIPDRFSGSSSGNTASLTITGAQAEDEADYYCGNADSSVGVFGSGTKVTVLGQPKANPTVTLFPPSSEELQANKATLVCLISDFYPGAVTVAWKADGSPVKAGVETTKPSKQSNNKYAASSYLSLTPEQWKSHRSYSCQVTHEGSTVEKTVAPTECS
notes: humanized, IgG1 LALA, lambda; whole antibody

Key:
[1] = molecular target: T1, human PD-1 Fc fusion protein (Sino Biological) (human, UniProt Q15116 25-167, limits assumed); assay: BLI, PD-1-Fc saturated with 10 ug/ml antibody, then PD-L1-Fc
T1 construct: bought; not shown: Fc of the commercial fusion protein

[2] = molecular target: T2, human PD-1 expressed on CHO-S cells (human, UniProt Q15116 25-288); assay: flow cytometry competition, 10 ug/ml antibody vs R-PE PD-L1-Fc on PD-1 CHO-S cells
T2 construct: also called PD-1-expressing cells

[3] = molecular target: T1, human PD-1 Fc fusion protein (Sino …); assay: BLI, PD-1-Fc saturated with 10 ug/ml antibody, then PD-L2-Fc
cyno PD1 = molecular target: T3, cyno PD1 (limits assumed); assay: flow cytometry, PD-1-transfected CHO-S cells; mAb 10 ug/ml, then R-PE PD-L1-Fc as blocked ligand
T3 construct: also called cynomolgus PD-1 expressed on CFSE-stained CHO-S cells
T3 receptor: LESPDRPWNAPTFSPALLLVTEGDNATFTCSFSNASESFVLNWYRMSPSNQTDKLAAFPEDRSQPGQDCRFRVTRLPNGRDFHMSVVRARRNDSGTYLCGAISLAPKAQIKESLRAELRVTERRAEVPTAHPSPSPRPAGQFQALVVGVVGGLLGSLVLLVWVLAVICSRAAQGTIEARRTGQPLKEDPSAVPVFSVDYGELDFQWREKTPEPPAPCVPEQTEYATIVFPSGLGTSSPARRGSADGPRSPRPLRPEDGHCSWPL

[4] = molecular target: T2, human PD-1 expressed on CHO-S cells; assay: as above
[5] = molecular target: T4, His-tagged human PD-1 ECD (human, UniProt Q15116 25-170); assay: SPR, IgG captured, monovalent PD-1 ECD analyte
T4 construct: bought from Acro Biosystems; not shown: His tag

[6] = molecular target: T5, His-tagged cynomolgus PD-1 ECD (cynomolgus (Macaca fascicularis), UniProt Q15116 25-170 (human entry)); assay: SPR, IgG captured, monovalent PD-1 ECD analyte
T5 construct: bought from Acro Biosystems; not shown: His tag
T5 chain: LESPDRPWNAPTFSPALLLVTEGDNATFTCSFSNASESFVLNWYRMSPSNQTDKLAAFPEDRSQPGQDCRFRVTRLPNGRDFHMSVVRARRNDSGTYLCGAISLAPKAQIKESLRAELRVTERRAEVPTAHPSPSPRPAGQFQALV
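Throughout, for % of all cells in Q3 of panel PD-L1 binding (PD-L1-, CFSE+ cyno PD1 cells): human PD-1 CHO-S cells mixed with CFSE-labelled cyno PD-1 CHO-S cells, antibody binding read with APC anti-human IgG light chain detection.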
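Throughout, for % of cyno PD1-gated cells in Q1 (mAb+, PD-L1-): human PD-1 CHO-S cells mixed with CFSE-labelled cyno PD-1 CHO-S cells, antibody binding read with APC anti-human IgG light chain detection.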
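Throughout, for % of cyno PD1-gated cells in Q2 (mAb+, PD-L1+): human PD-1 CHO-S cells mixed with CFSE-labelled cyno PD-1 CHO-S cells, antibody binding read with APC anti-human IgG light chain detection.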
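Throughout, for % of cyno PD1-gated cells in Q3 (mAb-, PD-L1+): human PD-1 CHO-S cells mixed with CFSE-labelled cyno PD-1 CHO-S cells, antibody binding read with APC anti-human IgG light chain detection.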

T1 sequence (Q15116 25-167 limits assumed): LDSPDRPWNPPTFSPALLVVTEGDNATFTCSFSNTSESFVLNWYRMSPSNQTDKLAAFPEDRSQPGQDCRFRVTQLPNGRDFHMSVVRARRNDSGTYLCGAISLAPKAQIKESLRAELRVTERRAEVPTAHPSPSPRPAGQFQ
T2 sequence (Q15116 25-288 limits assumed): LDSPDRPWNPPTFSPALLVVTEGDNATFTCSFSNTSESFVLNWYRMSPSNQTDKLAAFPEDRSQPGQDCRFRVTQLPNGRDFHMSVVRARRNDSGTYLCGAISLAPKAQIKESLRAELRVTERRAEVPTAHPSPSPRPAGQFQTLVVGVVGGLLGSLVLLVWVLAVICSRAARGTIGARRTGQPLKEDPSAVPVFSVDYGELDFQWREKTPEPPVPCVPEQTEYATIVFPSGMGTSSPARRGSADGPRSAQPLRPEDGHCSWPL
T4 sequence (Q15116 25-170): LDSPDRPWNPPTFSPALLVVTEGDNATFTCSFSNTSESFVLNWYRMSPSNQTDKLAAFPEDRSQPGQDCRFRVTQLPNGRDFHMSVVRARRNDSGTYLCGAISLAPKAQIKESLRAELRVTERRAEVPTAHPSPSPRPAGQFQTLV

Binder	% Blocking [1] [%]	% PD-L1 binding inhibition [2] [%]	% Blocking [3] [%]	% of all cells in Q3 of panel PD-L1 binding (PD-L1-, CFSE+ cyno PD1 cells) (cyno PD1) [%]	% of cyno PD1-gated cells in Q1 (mAb+, PD-L1-) (cyno PD1) [%]	% of cyno PD1-gated cells in Q2 (mAb+, PD-L1+) (cyno PD1) [%]	% of cyno PD1-gated cells in Q3 (mAb-, PD-L1+) (cyno PD1) [%]	% of cyno PD1-gated cells in Q4 (mAb-, PD-L1-) (cyno PD1) [%]	% of all cells in Q1 of panel PD-L1 binding (PD-L1+, CFSE- human PD1 cells) [4] [%]	% of all cells in Q4 of panel PD-L1 binding (PD-L1-, CFSE- human PD1 cells) [4] [%]	% of human PD1-gated cells in Q1 (mAb+, PD-L1-) [4] [%]	% of human PD1-gated cells in Q2 (mAb+, PD-L1+) [4] [%]	% of human PD1-gated cells in Q3 (mAb-, PD-L1+) [4] [%]	% of human PD1-gated cells in Q4 (mAb-, PD-L1-) [4] [%]	Kd [5] [nM]	koff [5] [s⁻¹]	kon [5] [M⁻¹ s⁻¹]	Kd [6] [nM]	koff [6] [s⁻¹]	kon [6] [M⁻¹ s⁻¹]
B1	94	87	94	51.1	47.8	3.87	0.99	47.3	0.73	47.6	58.8	5.85	0.37	35	–	–	–	–	–	–
B2	88	88	77	55.2	42.9	3.36	1.28	52.5	0.59	43.8	56.1	5.3	0.45	38.2	–	–	–	–	–	–
B3	93	69	90	50	51.8	11.4	0.74	36.1	2.56	45.3	59.6	14.3	0.28	25.9	–	–	–	–	–	–
B4	53	5	27	–	–	–	–	–	–	–	–	–	–	–	–	–	–	–	–	–
B5	–	–	–	–	–	–	–	–	–	–	–	–	–	–	0.054	0.00017	3.2e+06	0.101	0.00047	4.6e+06
B6	–	–	–	–	–	–	–	–	–	–	–	–	–	–	0.047	0.00016	3.4e+06	0.081	0.00039	4.8e+06
B7	–	–	–	–	–	–	–	–	–	–	–	–	–	–	0.558	0.00023	420000	0.738	0.00038	510000
B8	–	–	–	–	–	–	–	–	–	–	–	–	–	–	0.737	0.00034	460000	2.34	0.00069	290000
B9	–	–	–	–	–	–	–	–	–	–	–	–	–	–	0.542	0.00038	710000	2.22	0.0007	320000
B10	–	–	–	–	–	–	–	–	–	–	–	–	–	–	0.337	8e-05	240000	0.681	0.00017	250000
B11	–	–	–	–	–	–	–	–	–	–	–	–	–	–	0.112	0.00014	1.2e+06	6.94	0.0072	1e+06
B12	–	–	–	–	–	–	–	–	–	–	–	–	–	–	0.06	6.9e-05	1.2e+06	0.452	0.0011	2.5e+06
